Laboratory results from a protein production outcome set (Wang et al. 2014).

Assay: label from the status in PepcDB records

MTTTLSPDTARQIVPPEERYAAELAFLAAYDDGPRPPAWRLTPRAVVTFVMGSDGRALRLPEGAETPEGVPRRLTVEGKFVGDRSLVERCVVTLAGERGLLLVGEPGTAKSMLSELLSAAVCGTSGLVVQGTAGTTEDQLKYGWNYALLLAQGPSRTALVPSPVLTAMARGGIARVEEVTRCLPEVQDALVSLLSERRIAVPELSGTDDALAHAAPGFNLIATANLRDKGVSEMSAALKRRFNFETVGPIPDLDAETALVRSQARASVERAGAPFKVDEAVLEALVVAFRDLREGRSTEGWEVERPSTVMSTAEAVSVAGALGLAAAYFPGDRDVLGLLPGHLLGVVRKDDPADAARLRGYWDGPVRRRAEQGSATWRTLWDLRTVLEGLEHHHHHH
protein production: failed

MKKLILSALVLGGAMTFTAQAQNKAAEPAEEFFLEGRAMFIRQNYVGALDQFRLYRLHVGQEHALEVDYYSIIADYLLGADHDYVLSAVGNFLDNFPESIDKSRVRLLTGELMIRHEQYLRANTIFSDIDDRTLNDEDLAAYLLYYAYVRMQLSESNALAEQMLLKASESRGELGGRACLLLAAIQIEDGRIDEAEQTLSRLKNRPQFADEADAYIAEIQLLRGDYREAAEIADRLLSRNSPMRQRPQLLRVAGNAYYRLGDSNKTIDYLSDYSEKVGDRIAPADAYALGVTYYKQGLMKEALRPLAAATTDAGSLGAESALYLGQAQLAEGMTSEALMAFEKAATQDVNRPVREVGMYNMAMLMRSTGQSSFGQSVRIAENFLNEFPRSSHREQMAAILVESYFTGKDYNSSLRSIQKIAQPTASILAAKQFVLNRMAEQKEAAGYDSEALSFVSSSISMGNKGEYFPEAYFLRGNLRYRAGDFPTAAADYRAYISAAGDRDAANLPLGYYRLGYSLFNAERYDMALEAFKEYVSRSGIAPNLSADAYARIGDCRYMKRDFHGAREAYSMAYRVYPSGGDYALLRRARLEGLAKQYADQIQTLDKLIREFPDSRHLTAALYEKGCGAVLSGKHNVAEEAFNAVVKRSPDSREARQSSLQLGLLYYNTGRTKEAIRTYQRIIDRYPRSEETTVALSDLRSIYLEEDRIDEYSTYVRGLKDKVSIAPSETEQLGFLSAERKYRRRQPDARRDLEAYLERYPQGSDRHKAELYLADLDYQAGNADAAYNRYSRLVNSPGLPEDYKIDARLRLGRMQYERKEYKAALQSFQSVLDTDGAEAVRDQAVQGVTESAYADKDYRRVIDVIAGLKNQAALPHTLRLYRAKSYQALKMNREAIADYELLAEDFSTATGAEAVVMQAQLEMEAKRLSKAKSILEKFIAKSTPQQYWLARGFILLSDIYKKEGDTFTARQYLESLEKNYPNHEDDIHEQIAQRLE
protein production: failed

MMVPHLTTALTGPLLTLEKRLLDNMPRIEHWFRSQWQEYGAPFYASVDLRNAGFKLAPVDTNLFPGGFNNLNPDFLPLCIQAAMVAVEKICPDARRLLLIPENHTRNTFYLRNVHALTHILRQAGLEVRIGSIAPEITAPTFLETHDGHSILLEPVRRKANRLELDNFDSCAILLNNDLSGGIPDILQGLEQSLIPPLHAGWATRRKSNHFTAYDRVVEEFAPLIDIDPWLLNPYFDTCGGLDFHARLGEEQLAEKVDSLLAKIRRKYAEYGVKQEPFVIVKADAGTYGMGIMTVKSADDVRDLNRKQRNKMSVVKEGLKVSEVILQEGVYTFEHLKDAVAEPVIYMMDHFVVGGFYRVHTSRGADENLNAPGMHFEPLTFETPCSTPDCAGAPDAAPNRFYAYGVVARLALLAATIELQETDPDLLDERT
protein production: not failed

RAELRGVVRVAASEVVGAEVLPPLVARLRQACPNIVIELMLSNRFQDLLHREADIAVRMVAPQQEQLIARRLGRIELGLHATAAYLTRQGLPATLDDLASHALIGFDSATPLVRRALQAYPRFQREAFAMRTDSDLAQLSLIRAGA
protein production: failed

MRGTAAIEGPGSQSMITRRGFLRFIGGSFLTAAALGAYAVGIEPMLLTHVKRYALTPPHWPDGLKLRVVALADIHACRPWMTQERIASLVEDANALQPDLIVLLGDYIAGMPLVTGPVTPSQWASALSGLKAPLGVLSILGNHDWWSDGFAQRAGAGPIIARKALEKVGIPVLENDVVRLEKDGQSVWIAGLADQLALLPARKGDDCKGLDDLDGTLAKVGDTAPIILLAHEPDIFPTVPSRVSLTLSGHTHGGQVRLFGYSPVVPSRFGNRYAYGHVVEKDRNLIVSGGLGFSIMPVRFGVRPEILQIDLG
protein production: failed

MKVVPEKNAVRILWGRERGTRAMGAQRLLQELVEDKTRWMKWEGKRVELPDSPRSTFLLAFSPDRTLLASTHVNHNIYITEVKTGKCVHSLIGHRRTPWCVTFHPTISGLIASGCLDGEVRIWDLHGGSESWFTDSNNAIASLAFHPTAQLLLIATANEIHFWDWSRREPFAVVKTASEMERVRLVRFDPLGHYLLTAIVNPSNQQGDDEPEIPIDGTELSHYRQRALLQSQPVRRTPLLHNFLHMLSSRSSGIQVGEQSTVQDSATPSPPPPPPQPSTERPRTSAYIRLRQRVSYPTTVECCQHPGILCLCSRCAGTRVPSLLPHQDSVPPASARATTPSFSFVQTEPFHPPEQASSTQQDQGLLNRPSAFSTVQSSTAGNTLRNLSLGPTRRSLGGPLSSHPSRYHRELAPGLTGSEWTRTVLTLNSRSEVESMPPPRTSASSVSLLSVLRQQEGGSQASVYTSATEGRGFPSSGLATESDGGNGSSQNNSGNIRHELQCDLRRFFLEYDRLQELDQSLSGETPQTQQAQEMLNNNIESERPGPSHQPTPHSSENNSNLSRGHLNRCRACHNLLTFNNDTLRWERTTPNYSSGEASSSWHVSTTFEGMPPSGNQLPPLERTEGQMPNSSRLELSSSASSQEERTVGVAFNQETGHWERIYTQSSRSGTVSQEALHQDMPEESSEEDSLRRRLLESSLISLSRYDGAGSREHPIYPDPARLSPAAYYAQRMIQYLSRRDSIRQRSMRYQQNRLRSSTSSSSSDNQGPSVEGTDLEFEDFEDNGDRSRHRAPRNARMSAPSLGRFVPRRFLLPEYLPYAGIFHERGQPGLATHSSVNRVLAGAVIGDGQSAVASNIANTTYRLQWWDFTKFDLPEISNASVNVLVQNCKIYNDASCDISADGQLLAAFIPSSQRGFPDEGILAVYSLAPHNLGEMLYTKRFGKG
protein production: failed

MAEVRQNPVVIVPGVLFWDSLYEVMREALSTWIPAEKIAIVPVNLLDWLGFPPSPERSTNRVMAALDRTVRAMASRFPGEPVTIVAHSGGGTVAMIYLLERPFQGDVYAVNGLVGRLVTLGTPFHTHEHFAKIKTDFIFKHLGPEFFQKYQVVSVVSNQYKGSLDGGMIEKMCYMFYRGVTDDGNLAGDGVVPARSCFLDGAKNVTILECEHLPAPHTKWYGTKDGVEQWIEWL
protein production: failed

MMIVDPKYCSLHPVDLAIVRKVLKITDGNFVITNAEGNLLFKVKDPFFSLHEKRILMDGFGTKVLTLKGKIMTMHDRWLVFRGGSTEEVDLLYTVKRSNMVQITTKLDVFLADNIEQKKCDYRLEGVWLETSCFVYAGDSDIILAQMREKKTMQSVLFGKDNFCLTVNPNVDYAFIASLIVILFHQKDDIYPIESLWKRDITDFIC
protein production: failed

MHAPAILRQSGIDALLAGDGSPEIMVTDSPSPPVKRSKIWELSRTYHCPVIGLCLPASDLERFAKRFHFKASINNAHDLHVEAVCRVTSRNVVSETIHKYLDRLYESHIKQFDAAKTDSEVLALWETCFTNERIAGPLWAALTHKRISSEGREQIHDRVHMHMHEAVAELSATQHRLNQAEQMLKELAGQLEQIREKHVQTESRLRQQLQQAAAEIKQLQQSRRESETTRQRLETLESGQAILRMGQRLMQLTVENEQLQIKAAQADDLKQSLKNACHNLTELYHERDTLRVERDTLENLLLTLNSGSTTDTETADTTETKMAAYECILCVGGRSTLLPQYRTLARQLGLKLSHHDGGQEDALSRLPEMIYGAAAVICPTDYVSHAAYYQVKRLCRLGHKPCLLFKGTGVSSFAAALTKITSGQASINSSPVDTVETTT
protein production: failed

MRRRWYNNGGFQTLRMLEESSSEVTSSSALGLPPAMVMSPESLASPEYGGLELWGYDDGITYSMAQSLGTCTMEQQQPQPQQQPQQTQPLPSMPLPMPPTTPKSENESMSSGREELSPASSVNGCSTDGEARRQKKGPAPRQQEELCLVCGDRASGYHYNALTCEGCKGFFRRSVTKNAVYICKFGHACEMDMYMRRKCQECRLKKCLAVGMRPECVVPENQCAMKRKEKKAQREKDKLPVSTTTVDDHMPPIMQCDPPPPEAARIHEVVPRFLNEKLMEQNRLKNVPPLTANQKSLIARLVWYQEGYEQPSEEDLKRVTQTWQSDEDDEDSDMPFRQITEMTILTVQLIVEFAKGLPGFAKISQSDQITLLKACSSEVMMLRVARRYDAATDSVLFANNQAYTRDNYRKAGMAYVIEDLLHFCRCMYSMMMDNVHYALLTAIVIFSDRPGLEQPLLVEEIQRYYLNTLRVYILNQNSASPRCAVIFGKILGILTEIRTLGMQNSNMCISLKLKNRKLPPFLEEIWDVADVATTATPVAAEAPAPLAPAPPARPPATV
protein production: not failed

MQYRIRRENEAPEAKNAGETLWERDIMREVLLSAYRDRRRERMWKNIWRAVSTLILVALIAGIFRKDEAALQLAGNTPHTAVVNLYGKIGNGVEDQVKKLKDGMEAAYKNPQAKAIVIRANSPGGSPVVSNTAFEEIRRLKAQHPGIPVYLVAEDMCASGCYYIAAAADKIYADPSSIVGSIGVIGSSFDATGLMEKIGVKRRVKIAGSNKGMGDPFSPETPEQSKIWEEMLTGIHGEFIKAVKTGRGGRLKFRQYPDVFSGRVYTGADALKVGLVDGLGNIYSVARDVVKAPDVVDYTPKDDFGRILGRRFGAELKASVSEALQAVRLEHHHHHH
protein production: not failed

MKVERLSQPAQHLLTAGVENENSFALDTESVFTSAFLRAARGDARSSSRSDVVSLSEIVLEINQSIDELRVEKPAIKMSPQKYLLRNENNAGEFFFIKKARSEGYLQGRTGDPGAGGVDVSGPSDVRIPNRVTIGPDTVLFHPATGAPLLWFVRDGFDYDFFDGSGFHPRTGAKLAPFTKEEALIFEKRIREKEAEIRREAERVEKDRADREARDFAAKEALARKQEEDRKLREAEAARASEAGQRCDELAANPNDRNKVGQGASFSALKAQAADAVKACDLALKQKPSELRFKYQLARALQFSDRPRSFKLHKELVGQGYAASYDNLGWMYYTDRKDKPQAIVLFRQGIQVGDVDSMVSLAELVDRAEATPANASESKIELCRRAAELGHVGAAQCYQVEVAKQEQAEKDRAQQLEQQKMMIQLMGTIIQSATRR
protein production: failed

MRVRTERLTLAGLSVLARIPEAPKALLLALHGLQGSKEHILALLPGYAERGFLLLAFDAPRHGEREGPPPSSKSPRYVEEVYRVALGFKEEARRVAEEAERRFGLPLFLAGGSLGAFVAHLLLAEGFRPRGVLAFIGSGFPMKLPQGQVVEDPGVLALYQAPPATRGEAYGGVPLLHLHGSRDLIVPLARMEKTLEALRPHYPEGRLARFVEEGAGHTLTPLMARVGLAFLEHWLEAR
protein production: not failed

INYYDTYIKTCLDNLKRKNTRRSIKLDGKGEPKGAKRAKPVKYTAAKLHEKGVLLDIDDLQTNQFKNVTFDIIATEDVGIFDVRSKFLGVEMEKVQLNIQDLLQMQYEGVAVMKMFDKVKVNVNLLIYLLNKKFYGK
protein production: failed

MYQTQTNKEKFVLFLKLFIPVLIYQFANFSATFIDSVMTGQYSQLHLAGVSTASNLWTPFFALLVGMISALVPVVGQHLGRGNKEQIRTEFHQFLYLGLILSLILFLIMQFIAQPVLGSLGLEDEVLAVGRGYLNYMLIGIMPLVLFSICRSFFDALGLTRLSMYLMLLILPFNSFFNYMLIYGKFGMPRLGGAGAGLGTSLTYWAIFIVIIIVMSLHPQIKTYHIWTLERIKAPLIIEDIRLGLPIGLQIFAEVAIFAVVGLFMAKFSSIIIAAHQAAMNFSSLMYAFPLSISTALAITISFEVGAERFQDANTYSRIGRLTAVGITSGTLLFLFLFRENVAAMYNSDPHFVAITAQFLTYSLFFQFADAYAAPVQGILRGYKDTTKPFMIGAGSYWLCALPLAVILEKNSQLGPFAYWIGLITGIFVCGLFLNQRLQKIKKLYY
protein production: failed
